Laboratory results reported in US20160340442A1.

What was measured:
MUC1 (human) [1] = biological target: MUC1 (human) (UniProt P15941); assay: surface staining, flow cytometry, primary breast cancer patient cells RG563999; 2 µg antibody/sample
MUC1 (human) [2] = biological target: MUC1 (human) (UniProt P15941); assay: flow cytometry, U266/MUC1siRNA cells (MUC1 silenced, labelled MUC1-negative)
MUC1 (human) [3] = biological target: MUC1 (human) (UniProt P15941); assay: surface staining, flow cytometry, U266 MUC1-siRNA cells (MUC1 silenced, second block); 2 µg antibody/sample
MUC1 (human) [4] = biological target: MUC1 (human) (UniProt P15941); assay: surface staining, flow cytometry, U266 CTL-siRNA cells; 2 µg antibody/sample
MUC1 (human) [5] = biological target: MUC1 (human) (UniProt P15941); assay: surface staining, flow cytometry, KU812 CML cells; 2 µg antibody/sample
MUC1 (human) [6] = biological target: MUC1 (human) (UniProt P15941); assay: flow cytometry, KU812/Con siRNA cells (MUC1-Positive)
MUC1 (human) [7] = biological target: MUC1 (human) (UniProt P15941); assay: surface staining, flow cytometry, KU812 cells; 2 µg antibody/sample
MUC1 (human) [8] = biological target: MUC1 (human) (UniProt P15941); assay: flow cytometry, KU812/MUC1siRNA cells (MUC1 silenced, labelled MUC1-negative)
MUC1 (human) [9] = biological target: MUC1 (human) (UniProt P15941); assay: surface staining, flow cytometry, RPMI8266 cells; 2 µg antibody/sample
MUC1 (human) [10] = biological target: MUC1 (human) (UniProt P15941); assay: flow cytometry, K562/Con siRNA cells (MUC1-positive)
MUC1 (human) [11] = biological target: MUC1 (human) (UniProt P15941); assay: surface staining, flow cytometry, ZR-75-1 cells; 2 µg antibody/sample
MUC1 (human) [12] = biological target: MUC1 (human) (UniProt P15941); assay: surface staining, flow cytometry, ME559203 cells; 2 µg antibody/sample
MUC1 (human) [13] = biological target: MUC1 (human) (UniProt P15941); assay: surface staining, flow cytometry, primary breast cancer patient cells JB564765; 2 µg antibody/sample
MUC1 (human) [14] = biological target: MUC1 (human) (UniProt P15941); assay: surface staining, flow cytometry, KU812 MUC1-siRNA cells (MUC1 silenced, second block); 2 µg antibody/sample
MUC1 (human) [15] = biological target: MUC1 (human) (UniProt P15941); assay: flow cytometry, K562/MUC1siRNA cells (MUC1 silenced, labelled MUC1-negative)
MUC1 (human) [16] = biological target: MUC1 (human) (UniProt P15941); assay: surface staining, flow cytometry, U266 MUC1-siRNA cells (MUC1 silenced); 2 µg antibody/sample
MUC1 (human) [17] = biological target: MUC1 (human) (UniProt P15941); assay: surface staining, flow cytometry, K562 cells; 2 µg antibody/sample
MUC1 (human) [18] = biological target: MUC1 (human) (UniProt P15941); assay: surface staining, flow cytometry, MV4-11 cells; 2 µg antibody/sample
MUC1 (human) [19] = biological target: MUC1 (human) (UniProt P15941); assay: surface staining, flow cytometry, K562 MUC1-siRNA cells (MUC1 silenced); 2 µg antibody/sample
MUC1 (human) [20] = biological target: MUC1 (human) (UniProt P15941); assay: surface staining, flow cytometry, U266 CTL-siRNA cells (second block); 2 µg antibody/sample
MUC1 (human) [21] = biological target: MUC1 (human) (UniProt P15941); assay: surface staining, flow cytometry, KU812 CTL-siRNA cells (second block); 2 µg antibody/sample
MUC1 (human) [22] = biological target: MUC1 (human) (UniProt P15941); assay: surface staining, flow cytometry, MOLM-14 cells; 2 µg antibody/sample, PE-conjugated goat anti-mouse 2nd antibody
MUC1 (human) [23] = biological target: MUC1 (human) (UniProt P15941); assay: surface staining, flow cytometry, primary breast cancer patient cells RG563999 (second row); 2 µg antibody/sample
MUC1 (human) [24] = biological target: MUC1 (human) (UniProt P15941); assay: surface staining, flow cytometry, KU812 CTL-siRNA cells; 2 µg antibody/sample
MUC1 (human) [25] = biological target: MUC1 (human) (UniProt P15941); assay: surface staining, flow cytometry, ZR-75-1 cells (third row); 2 µg antibody/sample
MUC1 (human) [26] = biological target: MUC1 (human) (UniProt P15941); assay: surface staining, flow cytometry, K562 CML cells; 2 µg antibody/sample
MUC1 (human) [27] = biological target: MUC1 (human) (UniProt P15941); assay: flow cytometry, U266/Con siRNA cells (MUC1-positive)
MUC1 (human) [28] = biological target: MUC1 (human) (UniProt P15941); assay: surface staining, flow cytometry, KU812 MUC1-siRNA cells (MUC1 silenced); 2 µg antibody/sample
MUC1 (human) [29] = biological target: MUC1 (human) (UniProt P15941); assay: surface staining, flow cytometry, KMS28PE cells; 2 µg antibody/sample
MUC1 (human) [30] = biological target: MUC1 (human) (UniProt P15941); assay: surface staining, flow cytometry, U266 cells; 2 µg antibody/sample
MUC1 (human) [31] = biological target: MUC1 (human) (UniProt P15941); assay: surface staining, flow cytometry, K562 CTL-siRNA cells; 2 µg antibody/sample; fixed samples kept at 4° C. for 4 days
MUC1 (human) [32] = biological target: MUC1 (human) (UniProt P15941); assay: surface staining, flow cytometry, ZR-75-1 cells (second row); 2 µg antibody/sample

MUC1 (human), sequence (P15941 24-1255): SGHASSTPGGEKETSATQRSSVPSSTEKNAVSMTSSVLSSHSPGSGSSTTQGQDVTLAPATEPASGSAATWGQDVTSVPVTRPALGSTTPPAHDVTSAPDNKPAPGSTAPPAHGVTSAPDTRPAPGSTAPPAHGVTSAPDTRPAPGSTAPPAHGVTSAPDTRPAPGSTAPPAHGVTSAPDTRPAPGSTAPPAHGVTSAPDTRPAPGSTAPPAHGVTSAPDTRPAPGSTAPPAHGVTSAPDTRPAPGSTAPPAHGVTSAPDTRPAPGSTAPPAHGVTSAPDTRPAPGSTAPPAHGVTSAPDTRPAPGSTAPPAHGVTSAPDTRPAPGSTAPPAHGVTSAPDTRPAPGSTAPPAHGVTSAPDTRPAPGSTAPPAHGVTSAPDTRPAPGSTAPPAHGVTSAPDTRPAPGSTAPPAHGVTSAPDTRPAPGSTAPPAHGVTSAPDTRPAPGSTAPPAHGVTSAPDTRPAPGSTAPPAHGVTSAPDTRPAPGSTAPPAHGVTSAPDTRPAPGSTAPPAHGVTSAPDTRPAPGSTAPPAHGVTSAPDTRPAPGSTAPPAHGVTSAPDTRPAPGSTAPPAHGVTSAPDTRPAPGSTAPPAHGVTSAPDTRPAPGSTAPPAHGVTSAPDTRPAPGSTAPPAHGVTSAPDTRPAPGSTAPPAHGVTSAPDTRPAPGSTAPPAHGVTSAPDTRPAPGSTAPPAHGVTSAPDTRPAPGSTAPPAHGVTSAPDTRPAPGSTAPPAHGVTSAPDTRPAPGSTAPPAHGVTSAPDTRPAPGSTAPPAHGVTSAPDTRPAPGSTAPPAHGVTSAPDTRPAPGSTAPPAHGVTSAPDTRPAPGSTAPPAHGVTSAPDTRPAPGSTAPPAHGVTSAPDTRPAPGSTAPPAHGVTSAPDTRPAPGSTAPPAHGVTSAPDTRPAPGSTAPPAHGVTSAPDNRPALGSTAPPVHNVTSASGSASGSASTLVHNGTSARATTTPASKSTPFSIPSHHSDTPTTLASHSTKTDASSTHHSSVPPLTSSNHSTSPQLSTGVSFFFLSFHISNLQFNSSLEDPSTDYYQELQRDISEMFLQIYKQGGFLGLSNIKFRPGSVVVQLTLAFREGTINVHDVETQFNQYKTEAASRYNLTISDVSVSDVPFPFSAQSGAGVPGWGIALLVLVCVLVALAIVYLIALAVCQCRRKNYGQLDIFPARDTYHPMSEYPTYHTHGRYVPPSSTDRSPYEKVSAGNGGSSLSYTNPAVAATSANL

DF3 (antibody)
flow cytometry value (unit not given) (MUC1 (human) [1]): 60.5 | flow cytometry value (unit not given) (MUC1 (human) [2]): 13.5 | flow cytometry value (unit not given) (MUC1 (human) [3]): 13.5 | flow cytometry value (unit not given) (MUC1 (human) [4]): 94.7 | flow cytometry value (unit not given) (MUC1 (human) [5]): 90.5 | flow cytometry value (unit not given) (MUC1 (human) [6]): 95.2 | flow cytometry value (unit not given) (MUC1 (human) [7]): 98.1 | flow cytometry value (unit not given) (MUC1 (human) [8]): 35.4 | flow cytometry value (unit not given) (MUC1 (human) [9]): 95 | flow cytometry value (unit not given) (MUC1 (human) [10]): 40.6 | flow cytometry value (unit not given) (MUC1 (human) [11]): 98.5 | flow cytometry value (unit not given) (MUC1 (human) [12]): 57 | flow cytometry value (unit not given) (MUC1 (human) [13]): 21.1 | flow cytometry value (unit not given) (MUC1 (human) [14]): 85.4 | flow cytometry value (unit not given) (MUC1 (human) [15]): 17.1 | flow cytometry value (unit not given) (MUC1 (human) [16]): 16.2 | flow cytometry value (unit not given) (MUC1 (human) [17]): 78.8 | flow cytometry value (unit not given) (MUC1 (human) [18]): 74.2 | flow cytometry value (unit not given) (MUC1 (human) [19]): 17.1 | flow cytometry value (unit not given) (MUC1 (human) [20]): 96.5 | flow cytometry value (unit not given) (MUC1 (human) [21]): 95.2 | flow cytometry value (unit not given) (MUC1 (human) [22]): 99.5 | flow cytometry value (unit not given) (MUC1 (human) [23]): 11.9 | flow cytometry value (unit not given) (MUC1 (human) [24]): 96.6 | flow cytometry value (unit not given) (MUC1 (human) [25]): 89.5 | flow cytometry value (unit not given) (MUC1 (human) [26]): 77.9 | flow cytometry value (unit not given) (MUC1 (human) [27]): 94.7 | flow cytometry value (unit not given) (MUC1 (human) [28]): 69.2 | flow cytometry value (unit not given) (MUC1 (human) [29]): 58.2 | flow cytometry value (unit not given) (MUC1 (human) [30]): 99.2 | flow cytometry value (unit not given) (MUC1 (human) [31]): 40.6 | flow cytometry value (unit not given) (MUC1 (human) [32]): 6.84
